Measured values from the supplement of paper PMC10065799, “High-throughput profiling of sequence recognition by tyrosine kinases and SH2 domains using bacterial peptide display” (eLife, 2023).

Experiments:
SHP2-C SH2 = experiment: SH2 binding enrichment of the phosphorylated peptide, bacterial display (enrichment ratio); higher = better substrate or ligand; peptides without Tyr show the background
c-Src SH2 = experiment: as above
Grb2 SH2 = Grb2 SH2 (UniProt P62993); experiment: as above
Jak2 = Jak2 (UniProt O60674); experiment: phosphorylation enrichment, bacterial display (enrichment ratio); higher = better substrate or ligand; peptides without Tyr show the background
Hck = Hck (UniProt P08631); experiment: as above
MERTK = MERTK (UniProt Q12866); experiment: as above
FGFR3 = FGFR3 (UniProt P22607); experiment: as above
AncSZ = experiment: as above
Fes = Fes (UniProt P07332); experiment: as above
FGFR1 = FGFR1 (UniProt P11362); experiment: as above
Fyn = Fyn (UniProt P06241); experiment: as above
Fer (mouse) = experiment: as above
EPHB2 = EPHB2 (UniProt P29323); experiment: as above
EPHB1 = EPHB1 (UniProt P54762); experiment: as above
c-Src = experiment: as above
c-Abl (mouse) = experiment: as above
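Wherever SH2 binding enrichment of the phosphorylated peptide, bacterial display is given: peptide library displayed on the E. coli surface as eCPX fusions, selected cells deep-sequenced, score is each peptide's frequency after selection divided by its frequency in the input.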
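Wherever phosphorylation enrichment, bacterial display is given: 11-residue human phosphosite peptides and single-mutation variants displayed on the E. coli surface, counted by deep sequencing, each peptide's frequency after selection divided by its frequency in the unselected input library; frequency after pTyr selection over input frequency; kinase dosed for 20-30% of maximal phosphorylation in three min.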

Sequence of Jak2 (O60674 whole entry, looked up): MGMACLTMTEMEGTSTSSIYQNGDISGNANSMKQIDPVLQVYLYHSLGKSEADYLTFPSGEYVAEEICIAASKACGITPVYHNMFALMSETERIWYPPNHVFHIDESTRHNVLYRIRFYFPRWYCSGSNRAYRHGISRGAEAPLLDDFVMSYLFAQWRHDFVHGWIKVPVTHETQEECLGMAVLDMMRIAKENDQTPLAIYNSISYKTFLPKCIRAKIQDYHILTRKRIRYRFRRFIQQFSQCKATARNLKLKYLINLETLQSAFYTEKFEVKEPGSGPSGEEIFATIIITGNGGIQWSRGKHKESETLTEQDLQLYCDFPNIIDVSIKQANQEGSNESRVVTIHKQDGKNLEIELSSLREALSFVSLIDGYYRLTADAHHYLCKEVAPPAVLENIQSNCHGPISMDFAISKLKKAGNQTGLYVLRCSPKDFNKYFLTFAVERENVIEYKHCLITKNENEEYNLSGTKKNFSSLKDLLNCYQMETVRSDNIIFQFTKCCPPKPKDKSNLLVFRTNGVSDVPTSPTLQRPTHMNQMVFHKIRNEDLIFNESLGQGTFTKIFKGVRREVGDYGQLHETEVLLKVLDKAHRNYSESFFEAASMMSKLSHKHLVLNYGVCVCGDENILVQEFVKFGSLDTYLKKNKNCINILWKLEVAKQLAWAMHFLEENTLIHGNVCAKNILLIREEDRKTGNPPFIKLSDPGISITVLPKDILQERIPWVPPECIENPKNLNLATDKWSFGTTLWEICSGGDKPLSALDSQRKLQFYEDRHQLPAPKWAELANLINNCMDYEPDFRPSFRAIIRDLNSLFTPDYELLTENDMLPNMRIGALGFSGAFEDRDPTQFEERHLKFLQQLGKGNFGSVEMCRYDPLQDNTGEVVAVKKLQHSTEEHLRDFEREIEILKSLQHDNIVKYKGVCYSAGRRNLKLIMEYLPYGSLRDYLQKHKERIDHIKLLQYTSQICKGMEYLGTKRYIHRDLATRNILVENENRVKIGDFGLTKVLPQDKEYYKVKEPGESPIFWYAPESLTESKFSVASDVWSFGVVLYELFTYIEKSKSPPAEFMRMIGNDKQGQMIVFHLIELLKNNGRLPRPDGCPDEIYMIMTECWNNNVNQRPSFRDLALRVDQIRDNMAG
Sequence of Fyn (P06241 whole entry, looked up): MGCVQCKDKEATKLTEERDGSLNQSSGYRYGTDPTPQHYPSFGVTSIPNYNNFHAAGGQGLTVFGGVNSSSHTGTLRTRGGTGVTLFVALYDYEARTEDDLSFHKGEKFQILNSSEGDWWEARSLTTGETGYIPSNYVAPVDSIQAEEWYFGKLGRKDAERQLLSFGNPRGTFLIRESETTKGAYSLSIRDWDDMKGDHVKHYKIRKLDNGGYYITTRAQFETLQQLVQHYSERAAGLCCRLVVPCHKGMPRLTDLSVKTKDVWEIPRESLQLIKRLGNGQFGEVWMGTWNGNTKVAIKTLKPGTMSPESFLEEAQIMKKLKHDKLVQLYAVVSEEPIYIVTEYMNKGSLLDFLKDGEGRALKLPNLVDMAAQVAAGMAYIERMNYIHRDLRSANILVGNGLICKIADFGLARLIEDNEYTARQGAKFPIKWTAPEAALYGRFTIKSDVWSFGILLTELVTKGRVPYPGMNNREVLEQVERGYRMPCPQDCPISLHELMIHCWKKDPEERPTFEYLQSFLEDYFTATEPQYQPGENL
Sequence of Hck (P08631 whole entry, looked up): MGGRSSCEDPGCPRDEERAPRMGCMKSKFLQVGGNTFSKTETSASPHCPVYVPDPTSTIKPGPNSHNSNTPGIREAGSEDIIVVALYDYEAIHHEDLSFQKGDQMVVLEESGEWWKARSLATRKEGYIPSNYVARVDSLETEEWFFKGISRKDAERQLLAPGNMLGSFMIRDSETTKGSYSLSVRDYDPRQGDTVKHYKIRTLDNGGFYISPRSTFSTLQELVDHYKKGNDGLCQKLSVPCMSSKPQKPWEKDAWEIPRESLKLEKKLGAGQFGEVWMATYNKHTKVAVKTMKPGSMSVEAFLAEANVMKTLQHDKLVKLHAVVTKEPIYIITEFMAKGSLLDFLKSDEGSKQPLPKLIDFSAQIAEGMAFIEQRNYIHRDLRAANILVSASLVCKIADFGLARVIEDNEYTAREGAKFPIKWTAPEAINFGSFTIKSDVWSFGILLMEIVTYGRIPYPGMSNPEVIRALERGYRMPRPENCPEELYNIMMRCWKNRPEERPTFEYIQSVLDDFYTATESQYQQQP
Sequence of FGFR1 (P11362 whole entry, looked up): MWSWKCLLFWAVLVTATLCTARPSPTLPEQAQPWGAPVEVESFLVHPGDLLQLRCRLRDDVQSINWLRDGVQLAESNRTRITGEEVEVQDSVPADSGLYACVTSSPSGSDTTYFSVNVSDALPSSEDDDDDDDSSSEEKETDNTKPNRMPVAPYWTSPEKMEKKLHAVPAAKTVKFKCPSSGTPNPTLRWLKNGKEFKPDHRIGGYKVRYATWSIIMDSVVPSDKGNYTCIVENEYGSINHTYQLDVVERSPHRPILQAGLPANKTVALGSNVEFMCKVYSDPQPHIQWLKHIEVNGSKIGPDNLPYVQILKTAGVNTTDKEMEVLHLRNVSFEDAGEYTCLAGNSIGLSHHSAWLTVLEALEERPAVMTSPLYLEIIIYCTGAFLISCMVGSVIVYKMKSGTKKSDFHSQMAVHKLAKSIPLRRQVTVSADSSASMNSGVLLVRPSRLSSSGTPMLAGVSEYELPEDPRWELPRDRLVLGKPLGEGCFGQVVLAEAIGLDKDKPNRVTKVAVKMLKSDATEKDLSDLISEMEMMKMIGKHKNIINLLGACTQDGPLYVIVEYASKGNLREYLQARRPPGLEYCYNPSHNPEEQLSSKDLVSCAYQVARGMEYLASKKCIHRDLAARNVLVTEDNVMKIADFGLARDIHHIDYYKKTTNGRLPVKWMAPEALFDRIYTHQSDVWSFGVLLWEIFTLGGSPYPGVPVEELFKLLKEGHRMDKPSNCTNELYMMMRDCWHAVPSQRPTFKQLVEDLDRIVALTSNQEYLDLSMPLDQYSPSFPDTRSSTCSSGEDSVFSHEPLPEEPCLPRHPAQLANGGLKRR
Sequence of FGFR3 (P22607 whole entry, looked up): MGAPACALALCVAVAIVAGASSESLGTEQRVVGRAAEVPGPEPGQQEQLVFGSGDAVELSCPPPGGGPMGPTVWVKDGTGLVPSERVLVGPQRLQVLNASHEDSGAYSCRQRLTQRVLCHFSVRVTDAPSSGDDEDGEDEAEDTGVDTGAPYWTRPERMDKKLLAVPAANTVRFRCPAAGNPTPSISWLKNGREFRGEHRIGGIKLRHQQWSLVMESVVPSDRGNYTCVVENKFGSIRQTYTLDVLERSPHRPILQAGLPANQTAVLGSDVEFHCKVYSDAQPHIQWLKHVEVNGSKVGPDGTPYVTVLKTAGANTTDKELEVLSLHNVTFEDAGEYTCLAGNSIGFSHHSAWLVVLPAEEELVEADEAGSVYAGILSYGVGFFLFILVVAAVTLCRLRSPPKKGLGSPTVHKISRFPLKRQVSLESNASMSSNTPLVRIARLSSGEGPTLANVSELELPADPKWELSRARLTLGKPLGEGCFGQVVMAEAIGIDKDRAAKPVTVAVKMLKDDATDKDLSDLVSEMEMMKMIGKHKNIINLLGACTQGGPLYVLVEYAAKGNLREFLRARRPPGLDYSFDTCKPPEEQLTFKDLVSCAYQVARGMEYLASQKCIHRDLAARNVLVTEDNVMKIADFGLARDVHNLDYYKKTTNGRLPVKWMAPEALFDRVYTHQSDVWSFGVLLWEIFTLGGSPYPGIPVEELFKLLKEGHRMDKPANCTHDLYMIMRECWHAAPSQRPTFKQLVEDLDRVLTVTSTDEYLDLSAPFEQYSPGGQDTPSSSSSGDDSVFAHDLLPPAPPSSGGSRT
Sequence of MERTK (Q12866 whole entry, looked up): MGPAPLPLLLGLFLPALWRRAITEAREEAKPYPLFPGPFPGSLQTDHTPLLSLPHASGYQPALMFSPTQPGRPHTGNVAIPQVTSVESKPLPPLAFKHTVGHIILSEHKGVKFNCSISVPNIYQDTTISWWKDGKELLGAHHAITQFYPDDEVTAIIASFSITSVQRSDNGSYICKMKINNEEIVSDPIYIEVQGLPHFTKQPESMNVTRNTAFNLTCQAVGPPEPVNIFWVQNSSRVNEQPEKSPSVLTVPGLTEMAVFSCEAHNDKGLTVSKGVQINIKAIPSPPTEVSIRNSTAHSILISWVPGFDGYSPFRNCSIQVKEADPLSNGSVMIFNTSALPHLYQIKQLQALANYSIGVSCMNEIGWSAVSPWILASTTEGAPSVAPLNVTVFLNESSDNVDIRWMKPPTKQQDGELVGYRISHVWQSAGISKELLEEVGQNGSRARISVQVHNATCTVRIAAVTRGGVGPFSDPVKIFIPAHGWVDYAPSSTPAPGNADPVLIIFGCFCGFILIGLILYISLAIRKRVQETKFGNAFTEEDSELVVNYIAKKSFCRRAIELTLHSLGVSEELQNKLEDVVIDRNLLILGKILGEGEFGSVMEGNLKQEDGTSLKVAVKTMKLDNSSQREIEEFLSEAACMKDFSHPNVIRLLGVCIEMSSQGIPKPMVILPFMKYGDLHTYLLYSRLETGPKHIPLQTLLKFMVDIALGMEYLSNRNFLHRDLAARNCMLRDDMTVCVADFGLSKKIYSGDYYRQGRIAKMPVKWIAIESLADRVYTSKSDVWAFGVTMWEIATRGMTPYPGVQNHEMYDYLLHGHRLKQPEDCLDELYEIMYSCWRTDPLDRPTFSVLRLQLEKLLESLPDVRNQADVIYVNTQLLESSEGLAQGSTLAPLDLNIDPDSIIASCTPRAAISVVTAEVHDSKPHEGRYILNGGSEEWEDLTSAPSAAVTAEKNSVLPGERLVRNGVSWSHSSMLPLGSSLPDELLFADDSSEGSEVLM

Row | SH2 binding enrichment (SHP2-C SH2) | SH2 binding enrichment (c-Src SH2) | SH2 binding enrichment (Grb2 SH2) | Sequence | phosphorylation enrichment (Jak2) | phosphorylation enrichment (Hck) | phosphorylation enrichment (MERTK) | phosphorylation enrichment (FGFR3) | phosphorylation enrichment (AncSZ) | phosphorylation enrichment (Fes) | phosphorylation enrichment (FGFR1) | phosphorylation enrichment (Fyn) | phosphorylation enrichment (Fer (mouse)) | phosphorylation enrichment (EPHB2) | phosphorylation enrichment (EPHB1) | phosphorylation enrichment (c-Src) | phosphorylation enrichment (c-Abl (mouse))
1 | 0.852 | 0.515 | 0.824 | VGSEDYGWDLT [SPTAN1_Y1792_R1794W] | 0.967 | 0.443 | 0.36 | 0.726 | 1.2 | 1.16 | 0.489 | 0.384 | 0.463 | 0.732 | 0.602 | 0.419 | 0.724
2 | 0.595 | 0.523 | 0.806 | ANFTEYVATRW [CDKL5_Y171_YF] | 0.781 | 0.523 | 0.49 | 0.814 | 0.977 | 0.947 | 0.707 | 0.57 | 0.515 | 0.922 | 0.834 | 0.466 | 0.682
3 | 0.871 | 0.46 | 0.769 | AEARMYGVLPW [PLP1_Y207_D203E] | 0.65 | 7.47 | 1.54 | 0.559 | 0.767 | 0.811 | 0.502 | 7.15 | 0.477 | 1.05 | 0.692 | 4.81 | 0.989
4 | 0.766 | 0.508 | 0.906 | AEKPKYQINNI [TJP1_Y1602] | 0.704 | 0.366 | 0.349 | 0.427 | 0.541 | 0.682 | 0.383 | 0.341 | 0.368 | 0.802 | 0.366 | 0.363 | 0.548
5 | 0.542 | 0.403 | 0.676 | VRFMADTDETF [F8_Y450_Y450D] | 1.07 | 0.59 | 0.451 | 0.755 | 1.21 | 1.3 | 0.505 | 0.54 | 0.628 | 0.644 | 0.63 | 0.471 | 0.856
6 | 0.724 | 0.487 | 0.921 | QGCSIYKDFFR [PLA2G2D_Y82_YF] | 2.25 | 1.86 | 0.998 | 1.28 | 1.44 | 1.74 | 0.721 | 3.19 | 0.774 | 1.18 | 1.11 | 6.61 | 2.14
7 | 0.843 | 0.83 | 1.04 | RLSVDYGKKSK [TUBA3E_Y161_S162G] | 0.922 | 0.511 | 0.389 | 0.642 | 0.613 | 0.879 | 0.534 | 0.702 | 0.377 | 0.671 | 0.471 | 0.396 | 0.553
8 | 0.65 | 0.524 | 0.697 | WKEIEYEVVRD [CPS1_Y634] | 0.899 | 0.609 | 0.384 | 0.754 | 1.31 | 1.09 | 0.549 | 0.553 | 0.583 | 1.2 | 0.701 | 0.473 | 0.573
9 | 1.02 | 0.81 | 1.16 | KLLLKYSFHDA [RNF213_Y4141_V4146A] | 0.993 | 0.418 | 0.39 | 0.672 | 1.05 | 1.3 | 0.484 | 0.367 | 0.476 | 0.615 | 0.616 | 0.385 | 0.616
10 | 5.85 | 1.26 | 0.925 | PANTVYSTVEI [SLAMF7_Y304] | 1.47 | 9.13 | 7.46 | 1.29 | 1.59 | 2.16 | 1.43 | 10.2 | 23.3 | 1.83 | 2.2 | 7.87 | 6.76
11 | 0.706 | 2.21 | 4.43 | MNKNAYHNVTT [ST3GAL6_Y306_A311T] | 0.434 | 0.385 | 0.412 | 0.495 | 0.497 | 0.426 | 0.358 | 0.34 | 0.322 | 0.352 | 0.358 | 0.364 | 0.525
12 | 0.911 | 0.524 | 0.979 | DPEGAYTTRGG [EPHA3_Y779_A777G] | 0.774 | 0.483 | 0.412 | 0.534 | 0.896 | 0.798 | 0.369 | 0.394 | 0.515 | 0.501 | 0.497 | 0.536 | 0.789
13 | 0.611 | 0.521 | 0.707 | ERNAHYRTPKI [PTK2B_Y699_R698H] | 0.559 | 0.332 | 0.37 | 0.473 | 0.586 | 0.495 | 0.524 | 0.367 | 0.424 | 0.561 | 0.583 | 0.387 | 0.615
14 | 0.738 | 0.459 | 0.812 | GDPVQYNRTTD [MLPH_Y454] | 0.959 | 0.381 | 0.429 | 0.7 | 0.705 | 1.04 | 0.465 | 0.412 | 0.435 | 0.551 | 0.521 | 0.452 | 0.78
15 | 0.66 | 1.52 | 0.74 | EGNERYEGFCV [GRIA3_Y451_YF] | 1.01 | 0.554 | 0.431 | 0.697 | 1.12 | 1.15 | 0.649 | 0.58 | 0.55 | 0.515 | 0.662 | 0.479 | 0.783
16 | 0.642 | 0.493 | 0.659 | EAIMTYVSSFF [ACTN4_Y260_K255E_YF] | 0.9 | 0.643 | 0.422 | 0.675 | 1.02 | 1.04 | 0.501 | 0.778 | 0.468 | 0.726 | 0.621 | 0.975 | 0.842
17 | 0.775 | 2.6 | 0.823 | SYTDPYAQPSL [KMT2D_Y2378_P2382S] | 0.718 | 0.567 | 0.532 | 1.89 | 1.18 | 1 | 3.11 | 0.611 | 0.479 | 0.568 | 0.583 | 0.576 | 0.82
